Measured values published in PMC10879569, “Major cardiovascular events under biologic psoriasis therapies: a 19-year real-world analysis of FAERS data” (Frontiers in Immunology, 2024).

Legend:
[1] = in vivo; cited from earlier work
[2] = test system: active psoriatic arthritis; conditions: in vivo; cited from earlier work
[3] = set-up: method as in PMID 22011907, PMID 21862748; conditions: 2011; cited from earlier work
[4] = test system: psoriasis; conditions: in vivo; cited from earlier work
[5] = test system: patients with psoriasis indication; assay: FAERS disproportionality analysis (PRR and MGPS/EBGM) of MACEs reporting versus other psoriasis treatments; type: in vivo; conditions: compared among the biological classes
Text: FAERS collects […] of drug adverse events reports worldwide submitted by health professionals, consumers, and manufacturers. We chose the FAERS dataset as the data source for this study, and the analytical period was from January 2004 to December 2022. To enhance the reliability and validity of our results, only records submitted by professional health workers (e.g., physicians, pharmacists, and other health professionals) were included. To avoid potential confounders in causality assessments such as indication, the analysis was refined by retaining only reports with an expanded psoriasis indication. The raw FAERS data were cleaned, mapped, de-duplicated, and normalized by SQL server Data Mining.
The names are listed in Supplementary Table S1 .
Inclusion of reports was limited to only those cases where a biologic drug was identified as “the primary suspect” or”secondary suspect”. The control groups were comprised of the population who were indicated with psoriasis and receiving other psoriasis systemic therapies except biological agents. […]
This study is a case–non-case study. […] Disproportionality analysis (proportional reporting ratio, PRR) and MGPS were calculated to identify drug–event combinations with reporting rates higher than expected versus other drugs among patients with psoriasis indication. […]

Risankizumab
cardiac disorders as share of serious adverse events suspected of being caused by the drug [1]: 10.9%

Adalimumab
MACEs reported in the treatment group [2]: none

briakinumab
fate of clinical trials after reports of serious cardiovascular adverse events (e.g., myocardial infarction, cardiac death) [3]: discontinued before marketing

Ixekizumab
MACEs events reported in the treatment group [4]: two

Secukinumab
MACEs reported in the treatment group [2]: two

Ustekinumab
reporting rate for the four SMQs (myocardial infarction, stroke, cardiac fatality, death) [5]: highest reporting rate for all four SMQs
